We go through 26 molecules from patent publication US9695228B2, “EGFR and c-Met fibronectin type III domain binding molecules” (Janssen Biotech, Inc., priority 2012, dated 2017).

Data set [1] concerns H292-HGF human lung cancer xenograft. It is filed as in vivo. The following applies: for Tumor Size at day 23: day 23 after tumor inoculation, doses as printed with treatment.
Protocol: The H292-HGF cells were maintained in vitro in RPMI1640 medium supplemented with fetal bovine serum (10% v/v), and L-glutamine (2 mM) at 37° C. in an atmosphere of 5% CO2 in air. The cells were routinely subcultured twice weekly by trypsin-EDTA treatment. The cells growing in an exponential growth phase were harvested and counted for tumor inoculation.
Each mouse was inoculated subcutaneously at the right flank region with H292-HGF tumor cells (2×10^6) in 0.1 ml of PBS with cultrex (1:1) for tumor development. The treatments were started when the mean tumor size reached 139 mm^3. […] The date of tumor cell inoculation was denoted as day 0.
Before commencement of treatment, all animals were weighed and the tumor volumes were measured. Since the tumor volume can affect the effectiveness of any given treatment, mice were assigned into groups using randomized block design based upon their tumor volumes. […] The randomized block design was used to assign experimental animals to groups. First, the experimental animals were divided into homogeneous blocks according to their initial tumor volume. Secondly, within each block, randomization of experimental animals to treatments was conducted.
At the time of routine monitoring, the animals were checked for any effects of tumor growth and treatments on normal behavior, such as mobility, visual estimation of food and water consumption, body weight gain/loss (body weights were measured twice weekly), eye/hair matting and any other abnormal effect.
The endpoint was whether tumor growth can be delayed or tumor bearing mice can be cured. Tumor size was measured twice weekly in two dimensions using a caliper, and the volume was expressed in mm^3 using the formula: V=0.5 a×b^2 where a and b are the long and short diameters of the tumor, respectively. The tumor size was then used for calculations of both T-C and T/C values. T-C was calculated with T as the time (in days) required for the mean tumor size of the treatment group to reach 1000 mm^3, and C was the time (in days) for the mean tumor size of the control group to reach the same size. The T/C value (in percent) was an indication of antitumor efficacy; T and C were the mean tumor volume of the treated and control groups, respectively, on a given day. Complete tumor regression (CR) is defined as tumors that are reduced to below the limit of palpation (62.5 mm^3). Partial tumor regression (PR) is defined as tumors that are reduced from initial tumor volume. A minimum duration of CR or PR in 3 or more successive tumor measurements is required for a CP or PR to be considered durable.
Animals for which the body weight loss exceeded 20%, or for which the mean tumor size of the group exceeds 2000 mm^3 were euthanized. The study was terminated after two weeks of observation after the final dose.
Statistical analyses of difference in tumor volume among the groups were evaluated using a one-way ANOVA followed by individual comparisons using Games-Howell (equal variance not assumed). All data were analyzed using SPSS 18.0. p<0.05 was considered to be statistically significant.
A further data set has as its target T1, c-Met-Fc fusion protein (Homo sapiens, UniProt P08581).
T1 construct: recombinant EGFR and/or c-Met extracellular domain was further analyzed by surface Plasmon resonance
Put plainly: c-Met-Fc affinity by surface plasmon resonance (ProteOn). It is filed as binding. As to conditions: for binding to c-Met (in words): SPR; for Kd / ka / kd: serine mutants of A3 in the context of ECB15, SPR. In general terms: In SPR one partner is held on a chip, and binding of the other changes the refractive index at the surface.

Data set [2] is described as follows: Differential scanning calorimetry in PBS (thermal stability). The following applies: DSC in PBS, c-Met-binding FN3 domains. It is filed as physicochemical. In general terms: DSC measures the heat that a sample takes up or gives off during a temperature scan.

The term T/C denotes the ratio of treated to control. The Kd is a measure of binding affinity in units of concentration. Low values mean a tighter complex, high ones a looser complex.

Numbering of substitutions follows the chain as printed. Numbers in names are those of the source. Read-outs that look alike come from different tables or passages of the source.

T1 sequence (P08581 25-932 limits assumed): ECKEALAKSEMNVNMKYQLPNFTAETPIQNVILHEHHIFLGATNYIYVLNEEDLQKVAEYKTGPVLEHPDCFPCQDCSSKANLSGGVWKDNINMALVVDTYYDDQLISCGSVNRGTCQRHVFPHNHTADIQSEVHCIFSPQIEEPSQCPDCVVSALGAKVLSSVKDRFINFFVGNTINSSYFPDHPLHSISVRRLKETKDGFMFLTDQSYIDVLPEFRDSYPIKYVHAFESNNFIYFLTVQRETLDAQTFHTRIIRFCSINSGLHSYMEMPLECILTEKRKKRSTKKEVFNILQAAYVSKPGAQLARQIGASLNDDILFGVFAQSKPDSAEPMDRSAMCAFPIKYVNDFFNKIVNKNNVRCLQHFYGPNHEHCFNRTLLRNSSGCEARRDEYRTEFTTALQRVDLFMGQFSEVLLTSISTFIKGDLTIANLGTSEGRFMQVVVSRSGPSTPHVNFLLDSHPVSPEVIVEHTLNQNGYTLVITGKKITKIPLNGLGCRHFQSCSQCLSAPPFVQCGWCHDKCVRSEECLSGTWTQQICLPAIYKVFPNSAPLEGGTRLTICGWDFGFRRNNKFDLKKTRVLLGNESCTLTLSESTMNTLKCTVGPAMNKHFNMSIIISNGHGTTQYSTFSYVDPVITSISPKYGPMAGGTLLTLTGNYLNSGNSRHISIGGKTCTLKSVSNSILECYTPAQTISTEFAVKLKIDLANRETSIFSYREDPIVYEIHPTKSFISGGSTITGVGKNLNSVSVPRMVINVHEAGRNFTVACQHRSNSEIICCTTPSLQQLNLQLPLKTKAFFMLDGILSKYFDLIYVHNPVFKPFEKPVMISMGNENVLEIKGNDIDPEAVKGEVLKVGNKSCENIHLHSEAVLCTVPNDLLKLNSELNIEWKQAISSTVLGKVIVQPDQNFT

Take `C[C@@H](Oc1cc(-c2cnn(C3CCNCC3)c2)cnc1N)c1c(Cl)ccc(F)c1Cl` [Crizotinib, crizotinib, reference compound]: the “T-C at 1000 mm^3 (tumor growth delay)” value in data set [1] (compared with the vehicle group) is -1 days. Besides, the Tumor volume in data set [1] (day 7 (start of treatment), mean ± SEM, doses as in column head) stood at 140 ± 9 mm^3; in data set [1] (day 9, mean ± SEM), 217 ± 20 mm^3; in data set [1] (day 13, mean ± SEM) it was 547 ± 43 mm^3; in data set [1] (day 16, mean ± SEM), 914 ± 92 mm^3; in data set [1] (day 20, mean ± SEM), 1438 ± 239 mm^3; in data set [1] (day 23, mean ± SEM), 2102 ± 298 mm^3. Moreover, in data set [1] (day 23), the T/C is recorded as 120%. In addition, the entries for the “Tumor Size at day 23” value in data set [1] and in data set [1] (listed as crizotinib) were 2102 ± 298 mm^3 and 2,102 mm^3, respectively. Also, in data set [1] (doses as in Table 14), the “antitumor activity (in words)” value is “no antitumor activity”. Also, in data set [1] (doses as in Table 14), the “tolerability / body weight loss (in words)” value is “More severe body weight loss”. On to `C#Cc1cccc(Nc2ncnc3cc(OCCOC)c(OCCOC)cc23)c1` [Erlotinib, erlotinib, reference compound], for which the “tolerability / body weight loss (in words)” value in data set [1] (doses as in Table 14) is “More severe body weight loss”.

B1: A3 M72S: serine mutant of c-Met domain A3 in the context of ECB15, SEQ ID NO: 220 (protein)
chain: LPAPKNLVVSRVTEDSARLSWTAPDAAFDSFWIRYFEFLGSGEAIVLTVPGSERSYDLTGLKPGTEYVVNISGVKGGKISPPLSAIFTT
modifications: c-Met binding FN3 domain
For the molecule B1, in the data set with c-Met-Fc fusion protein, the “binding to c-Met (in words)” value is given as “No binding was measurable” and the Kd was > 1000 nM.

B2: A3 R34S: serine mutant of c-Met domain A3 in the context of ECB15, SEQ ID NO: 221 (protein)
chain: B1 chain with R34S, S72M
modifications: c-Met binding FN3 domain
With B2, in the data set with c-Met-Fc fusion protein, the “binding to c-Met (in words)” value was “No binding was measurable” and the Kd was > 1000 nM.

B3: P114AR7P94-A3: c-Met-binding FN3 domain, SEQ ID NO: 41 (protein)
chain: B1 chain with S72M
modifications: c-Met binding FN3 domain
Turning to B3, in data set [2], the “Thermal Stability (Tm)” value amounted to 86.2 C.

B4: P114AR7P95-D4: c-Met-binding FN3 domain, SEQ ID NO: 45 (protein)
chain: B1 chain with N70Q, S72L, K78Y, P81I
modifications: c-Met binding FN3 domain
B4: the “Thermal Stability (Tm)” value in data set [2] is given as 85.3 C.

B5: A3 179S: serine mutant of c-Met domain A3 in the context of ECB15, SEQ ID NO: 223 (protein)
chain: B1 chain with S72M, I79S
modifications: c-Met binding FN3 domain
With B5, in the data set with c-Met-Fc fusion protein, the “binding to c-Met (in words)” value was “No binding was measurable” and the Kd is > 1000 nM.

B6: A3 W32S: serine mutant of c-Met domain A3 in the context of ECB15, SEQ ID NO: 219 (protein)
chain: B1 chain with W32S, S72M
modifications: c-Met binding FN3 domain
As to B6, in the data set with c-Met-Fc fusion protein, the ka came out at 289000 M⁻¹ s⁻¹ and the kd turned out to be 0.0086 s⁻¹.

B7: A3 K78S: serine mutant of c-Met domain A3 in the context of ECB15, SEQ ID NO: 212 (protein)
chain: B1 chain with S72M, K78S
modifications: c-Met binding FN3 domain
On to B7, for which, in the data set with c-Met-Fc fusion protein, the ka was 440000 M⁻¹ s⁻¹ and the kd was 0.00015 s⁻¹.

B8: P114AR7P94-E5: c-Met-binding FN3 domain, SEQ ID NO: 42 (protein)
chain: B1 chain with V68A, S72M, K78R, I79V, P81V
modifications: c-Met binding FN3 domain
For B8, the “Thermal Stability (Tm)” value in data set [2] came out at 80 C.

B9: P114AR7P92-H5: c-Met-binding FN3 domain, SEQ ID NO: 37 (protein)
chain: B1 chain with F36L, G40L, S41G, N70Q, S72M, K78T, I79V
modifications: c-Met binding FN3 domain
With B9, the “Thermal Stability (Tm)” value in data set [2] was 87 C.

B10: P114AR7P93-G8: c-Met-binding FN3 domain, SEQ ID NO: 39 (protein)
chain: B1 chain with G60D, V68G, N70T, S72N, K78R, I79V, P81T
modifications: c-Met binding FN3 domain
For the molecule B10, the “Thermal Stability (Tm)” value in data set [2] amounted to 76.8 C.

B11: P114AR7P95-G7: c-Met-binding FN3 domain, SEQ ID NO: 48 (protein)
chain: B1 chain with F38L, G40S, S41T, S72M, K78S
modifications: c-Met binding FN3 domain
Regarding B11, in data set [2], the “Thermal Stability (Tm)” value is recorded as 87.2 C.

B12: P114AR7P95-H8: c-Met-binding FN3 domain, SEQ ID NO: 49 (protein)
chain: B1 chain with L39V, G40S, S41K, S72M, K78S
modifications: c-Met binding FN3 domain
Consider B12, for which the “Thermal Stability (Tm)” value in data set [2] stood at 83 C.

B13: A3 L39S: serine mutant of c-Met domain A3 in the context of ECB15, SEQ ID NO: 214 (protein)
chain: B1 chain with L39S, S72M
modifications: c-Met binding FN3 domain
In the data set with c-Met-Fc fusion protein, B13 displayed a ka of 475000 M⁻¹ s⁻¹ and a kd of 0.00127 s⁻¹.

B14: A3 F36S: serine mutant of c-Met domain A3 in the context of ECB15, SEQ ID NO: 218 (protein)
chain: B1 chain with F36S, S72M
modifications: c-Met binding FN3 domain
In the data set with c-Met-Fc fusion protein, B14 gave a ka of 188000 M⁻¹ s⁻¹ and a kd of 0.00512 s⁻¹.

B15: P114AR7P92-F6: c-Met-binding FN3 domain, SEQ ID NO: 35 (protein)
chain: B1 chain with S72L, K78G, I79L, P81V
modifications: c-Met binding FN3 domain
Take B15: the “Thermal Stability (Tm)” value in data set [2] was 76.8 C.

B16: P114AR5P74-A5: c-Met-binding FN3 domain, SEQ ID NO: 32 (protein)
chain: B1 chain with F36D, F38V, L39V, G40V, S41G, V68Y, S72L, K78S, P81V
modifications: c-Met binding FN3 domain
Regarding B16, the “Thermal Stability (Tm)” value in data set [2] was found to be 74.1 C.

B17: A3 N70S: serine mutant of c-Met domain A3 in the context of ECB15, SEQ ID NO: 216 (protein)
chain: B1 chain with N70S, S72M
modifications: c-Met binding FN3 domain
In the data set with c-Met-Fc fusion protein, B17 showed a ka of 425000 M⁻¹ s⁻¹ and a kd of 0.00249 s⁻¹.

B18: A3 F38S: serine mutant of c-Met domain A3 in the context of ECB15, SEQ ID NO: 222 (protein)
chain: B1 chain with F38S, S72M
modifications: c-Met binding FN3 domain
Consider B18, for which, in the data set with c-Met-Fc fusion protein, the ka is 45100 M⁻¹ s⁻¹ and the kd was 0.0323 s⁻¹.

B19: P114AR7P95-F10: c-Met-binding FN3 domain, SEQ ID NO: 47 (protein)
chain: B1 chain with L39T, G40T, S41A, S72M, K78S
modifications: c-Met binding FN3 domain
Regarding B19, in data set [2], the “Thermal Stability (Tm)” value is recorded as 85.2 C.

B20: A3 P81S: serine mutant of c-Met domain A3 in the context of ECB15, SEQ ID NO: 217 (protein)
chain: B1 chain with S72M, P81S
modifications: c-Met binding FN3 domain
In the data set with c-Met-Fc fusion protein, B20 came in with a ka of 321000 M⁻¹ s⁻¹ and a kd of 0.000536 s⁻¹.

B21: A3 G40S: serine mutant of c-Met domain A3 in the context of ECB15, SEQ ID NO: 213 (protein)
chain: B1 chain with G40S, S72M
modifications: c-Met binding FN3 domain
As for B21, in the data set with c-Met-Fc fusion protein, the ka worked out at 185000 M⁻¹ s⁻¹ and the kd was found to be 0.00032 s⁻¹.

B22: P114AR7P93-H9: c-Met-binding FN3 domain, SEQ ID NO: 40 (protein)
chain: B1 chain with N70Q, S72I, K78H, P81L
modifications: c-Met binding FN3 domain
In the case of B22, the “Thermal Stability (Tm)” value in data set [2] is reported as 88.2 C.

B23: P114AR7P92-G8: c-Met-binding FN3 domain, SEQ ID NO: 36 (protein)
chain: B1 chain with W32V, N70Q, S72L, K78Y, P81I
modifications: c-Met binding FN3 domain
With B23, in data set [2], the “Thermal Stability (Tm)” value is 90.9 C.

B24: A3 V68S: serine mutant of c-Met domain A3 in the context of ECB15, SEQ ID NO: 215 (protein)
chain: B1 chain with V68S, S72M
modifications: c-Met binding FN3 domain
For B24, in the data set with c-Met-Fc fusion protein, the ka was 329000 M⁻¹ s⁻¹ and the kd came out at 0.0012 s⁻¹.
